Two molecules from publication PMC5517500, “Cyclic di-GMP regulates Mycobacterium tuberculosis resistance to ethionamide” (Scientific Reports, 2017) can be followed below.

As a reminder, the Kd is the constant that tells how readily two partners part at equilibrium.

For one data set, the target named is T1, Ycdc (Escherichia coli, UniProt P0ACU2).
T1 construct: gene rutR
T1 sequence (P0ACU2 1-212): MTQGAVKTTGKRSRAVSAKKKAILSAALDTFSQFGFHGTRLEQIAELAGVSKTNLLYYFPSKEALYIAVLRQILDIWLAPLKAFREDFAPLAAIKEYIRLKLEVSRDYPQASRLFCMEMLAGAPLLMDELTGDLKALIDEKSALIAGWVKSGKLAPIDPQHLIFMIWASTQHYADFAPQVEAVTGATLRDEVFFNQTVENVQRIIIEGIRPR
Nature of the data set: incubation with bio-c-di-GMP (Supplementary Fig. S4b). The format is binding.

Data set [1] has as its target T2, EthR (Mycobacterium tuberculosis H37Rv, UniProt P9WMC1 1-216). Nature of the data set: BLI; no c-di-GMP. Particulars: protein: recombinant; tags: 6xHis (E. coli, pET28a) or GST (yeast); chain copies: 2; label: biotin on second strand (Ms6440pr). A general note: In BLI a coated tip is dipped into the sample, and binding shifts an interference pattern.
For data set [2], the target named is T2, EthR. Nature of the data set: BLI; 50 uM c-di-GMP. The following applies: protein: recombinant; tags: 6xHis (E. coli, pET28a) or GST (yeast); chain copies: 2; label: biotin on second strand (Ms6440pr).

T2 sequence (P9WMC1 whole entry): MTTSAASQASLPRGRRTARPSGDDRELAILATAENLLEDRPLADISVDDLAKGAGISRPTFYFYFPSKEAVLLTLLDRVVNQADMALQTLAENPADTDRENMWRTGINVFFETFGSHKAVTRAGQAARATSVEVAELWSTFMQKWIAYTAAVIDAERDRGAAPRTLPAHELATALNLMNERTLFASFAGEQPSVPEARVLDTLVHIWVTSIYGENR

Take `Nc1nc2c(ncn2[C@@H]2O[C@@H]3COP(=O)(O)O[C@H]4[C@@H](O)[C@H](n5cnc6c(=O)[nH]c(N)nc65)O[C@@H]4COP(=O)(O)O[C@H]3[C@H]2O)c(=O)[nH]1` [c-di-GMP]: the “incubation with bio-c-di-GMP (Supplementary Fig. S4b)” value on Ycdc was “we incubated Escherichia coli Ycdc with bio-c-di-GMP, the result clearly showed that they bind each other”.

B1: etha promoter DNA (dsDNA)
DNA 1: CGGTCATGGATCCACGCTATCAACGTAATGTCGAGGCCGTCAACGAGATGTCGACACTATCGA
DNA 2: CTGACTGGCCGCGGAGGTGGTCACCCTGGCAGCTTACTACGTGTCGATAGATGTCGACATCTCGTTGACGG
For B1, the Kd with EthR [1] was 1340 nM; with EthR [2], 1120 nM.
